From US20060228300A1

Assays:
[1] = target: fusion protein containing the A3B3 domain of CEA (UniProt P06731); assay: competitive ELISA vs HRP-conjugated hMN-14 IgG (1 nM) on the A3B3 fusion protein
CEA = CEA (UniProt P06731); assay: SE-HPLC of 125I-TF2 mixed with a 20-fold molar excess of CEA
Sequence of CEA (P06731 35-685 limits assumed): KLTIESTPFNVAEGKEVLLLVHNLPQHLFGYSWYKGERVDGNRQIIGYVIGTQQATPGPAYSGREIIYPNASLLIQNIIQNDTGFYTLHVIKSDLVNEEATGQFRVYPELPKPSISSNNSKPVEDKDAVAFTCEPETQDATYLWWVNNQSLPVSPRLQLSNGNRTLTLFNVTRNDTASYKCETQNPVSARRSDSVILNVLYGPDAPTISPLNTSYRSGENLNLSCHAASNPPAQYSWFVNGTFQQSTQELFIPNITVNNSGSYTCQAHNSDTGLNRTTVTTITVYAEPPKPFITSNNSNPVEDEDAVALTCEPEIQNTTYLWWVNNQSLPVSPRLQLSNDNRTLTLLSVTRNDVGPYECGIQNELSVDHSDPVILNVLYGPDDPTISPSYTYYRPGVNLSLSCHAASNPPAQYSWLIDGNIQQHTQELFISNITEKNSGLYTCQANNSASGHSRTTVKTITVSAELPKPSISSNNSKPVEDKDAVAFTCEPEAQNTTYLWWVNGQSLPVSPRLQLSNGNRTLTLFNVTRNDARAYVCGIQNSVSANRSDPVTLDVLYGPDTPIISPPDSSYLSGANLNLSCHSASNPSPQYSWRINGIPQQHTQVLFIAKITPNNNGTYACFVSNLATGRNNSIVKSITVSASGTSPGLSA

Sequence of fusion protein containing the A3B3 domain of CEA (P06731 499-676): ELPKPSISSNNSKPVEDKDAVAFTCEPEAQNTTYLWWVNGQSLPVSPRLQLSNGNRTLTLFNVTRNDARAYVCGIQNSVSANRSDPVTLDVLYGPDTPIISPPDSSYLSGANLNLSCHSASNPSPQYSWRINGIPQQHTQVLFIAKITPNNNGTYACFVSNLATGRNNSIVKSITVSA

fold avidity against TF1 [1]: 2 fold
percent shifted to a high molecular weight species (CEA): 95%
Substance: TF2 (bispecific antibody)
